From patent publication US20210340217A1, “NOVEL PEPTIDES AND COMBINATION OF PEPTIDES FOR USE IN IMMUNOTHERAPY AGAINST OVARIAN CANCER AND OTHER CANCERS” (Immatics Biotechnologies GmbH, priority 2017, published 2021) come the findings set out here.

In the first test the target is HLA-B*07:02 (Homo sapiens, UniProt P01889). In words: MHC binding assay (UV-ligand exchange, beta2m ELISA). Conditions: peptide exchange yield. An excerpt:
(§1) Candidate peptides for T cell based therapies according to the present invention were further tested for their MHC binding capacity (affinity). The individual peptide-MHC complexes were produced by UV-ligand exchange, where a UV-sensitive peptide is cleaved upon UV-irradiation, and exchanged with the peptide of interest as analyzed. Only peptide candidates that can effectively bind and stabilize the peptide-receptive MHC molecules prevent dissociation of the MHC complexes. To determine the yield of the exchange reaction, an ELISA was performed based on the detection of the light chain (β2m) of stabilized MHC complexes. The assay was performed as generally described in Rodenko et al. (Rodenko et al., 2006).
(§2) 96 well MAXISorp plates (NUNC) were coated over night with 2 ug/ml streptavidin in PBS at room temperature, washed 4× and blocked for 1 h at 37° C. in 2% BSA containing blocking buffer. Refolded HLA-A*02:01/MLA-001 monomers served as standards, covering the range of 15-500 ng/ml. Peptide-MHC monomers of the UV-exchange reaction were diluted 100-fold in blocking buffer. Samples were incubated for 1 h at 37° C., washed four times, incubated with 2 ug/ml HRP conjugated anti-β2m for 1h at 37° C., washed again and detected with TMB solution that is stopped with […]. Absorption was measured at 450 nm. Candidate peptides that show a high exchange yield (preferably higher than 50%, most preferred higher than 75%) are generally preferred for a generation and production of antibodies or fragments thereof, and/or T cell receptors or fragments thereof, as they show sufficient avidity to the MHC molecules and prevent dissociation of the MHC complexes.
A general note: ELISA stands for enzyme-linked immunosorbent assay.
Take “338 (HVTKTQATF; listed as Homo sapiens) [compound 338]”: the Peptide exchange entry is ““++” (>20% = ++)”.
Consider “386 (FPFNPLDF; listed as Homo sapiens) [compound 386]”, for which the Peptide exchange result is given as ““++” (>20% = ++)”.
Consider “130 (FPRLVGPDF; listed as Homo sapiens) [compound 130]”, for which the Peptide exchange entry is ““+++” (>50 = +++)”.
Take “137 (SPGATSRGTL; listed as Homo sapiens) [compound 137]”: the Peptide exchange result was ““+++” (>50 = +++)”.
The same measure, in the same setting: under “329 (FPAMTESGGMIL; listed as Homo sapiens) [compound 329]” stands ““+++” (>50 = +++)”; under “357 (SPSPVPTTL; listed as Homo sapiens) [compound 357]”, ““+++” (>50 = +++)”.
Still for that read-out and setting: in the case of “387 (APLKLSRTPA; listed as Homo sapiens) [compound 387]” it was ““+++” (>50 = +++)”; in that of “141 (SPMTSLLTSGL; listed as Homo sapiens) [compound 141]”, ““+++” (>50 = +++)”.

In the next test the target is HLA-B*44:02 (Homo sapiens, UniProt P01889, A223V/A65T/A93T/A95T/D201E/D98Y/E176V/E187L/E204Q/E69K/G107R/H137Y/K202T/L105A/L119I/N104T/N87E/Q56L/Q94N/R106L/R155S/R180D/S101N/S121R/S35A/S48T/T118I/V36M/W191S/Y140D/Y91S). Described as above. Conditions: peptide exchange yield.
Source text: as §1, §2
Take “57 (QESDLRLFL; listed as Homo sapiens) [compound 57]”: the Peptide exchange entry is reported as ““+++” (>50 = +++)”.
Regarding “431 (AEQDPDELNKA; listed as Homo sapiens) [compound 431]”, the Peptide exchange entry is listed as ““++” (>20% = ++)”.
As to “201 (AETILTFHAF; listed as Homo sapiens) [compound 201]”, the Peptide exchange entry was ““+++” (>50 = +++)”.
Turning to “403 (EEAQWVRKY; listed as Homo sapiens) [compound 403]”, the Peptide exchange entry was ““++” (>20% = ++)”.
As for “207 (TEARATSDSW; listed as Homo sapiens) [compound 207]”, the Peptide exchange result was ““+++” (>50 = +++)”.
On the same count and under the same terms, under “214 (VEQTRAGSLL; listed as Homo sapiens) [compound 214]” stands ““++” (>20% = ++)”; under “437 (TEAVVTNEL; listed as Homo sapiens) [compound 437]”, ““++” (>20% = ++)”; under “185 (AERQPGAASL; listed as Homo sapiens) [compound 185]”, ““++” (>20% = ++)”.
Still for that read-out and setting: in the case of “400 (GEIEIHLL; listed as Homo sapiens) [compound 400]” it was ““+” (>10% = +)”.
On the same count and under the same terms, under “435 (REEFVSIDHL; listed as Homo sapiens) [compound 435]” stands ““++” (>20% = ++)”; under “420 (FESHSTVSA; listed as Homo sapiens) [compound 420]”, ““+” (>10% = +)”.
Take “192 (YEFKFPNRL; listed as Homo sapiens) [compound 192]”: the Peptide exchange result is listed as ““+++” (>50 = +++)”.
For “411 (LELPPILVY; listed as Homo sapiens) [compound 411]”, the Peptide exchange result is listed as ““+” (>10% = +)”.
Same read-out and setting: under “414 (EDAALFKAW; listed as Homo sapiens) [compound 414]” stands ““++” (>20% = ++)”; under “194 (KEVDPTSHSY; listed as Homo sapiens) [compound 194]”, ““++” (>20% = ++)”.
As to “398 (SFEQVVNELF; listed as Homo sapiens) [compound 398]”, the Peptide exchange entry is on record as ““++” (>20% = ++)”.
Same read-out and setting: under “175 (AEIEPKADG; listed as Homo sapiens) [compound 175]” stands ““++” (>20% = ++)”.
Still for that read-out and setting: under “190 (YEVARILNL; listed as Homo sapiens) [compound 190]” stands ““++” (>20% = ++)”; under “173 (AEAQVGDERDY; listed as Homo sapiens) [compound 173]”, ““+++” (>50 = +++)”; under “397 (REGDTVQLL; listed as Homo sapiens) [compound 397]”, ““++” (>20% = ++)”.
On the same count and under the same terms, under “432 (EEQYIAQF; listed as Homo sapiens) [compound 432]” stands ““+” (>10% = +)”.
For “179 (REAGDEFEL; listed as Homo sapiens) [compound 179]”, the Peptide exchange entry is ““++” (>20% = ++)”.
For “210 (VEAADIFQNF; listed as Homo sapiens) [compound 210]”, the Peptide exchange entry is ““+++” (>50 = +++)”.
On to “188 (AEFAKKQPWW; listed as Homo sapiens) [compound 188]”, for which the Peptide exchange result was ““+++” (>50 = +++)”.
Still for that read-out and setting: under “407 (AEHEGVSVL; listed as Homo sapiens) [compound 407]” stands ““++” (>20% = ++)”; under “417 (AEHFSMIRA; listed as Homo sapiens) [compound 417]”, ““++” (>20% = ++)”; under “415 (REEDAALFKAW; listed as Homo sapiens) [compound 415]”, ““+++” (>50 = +++)”.
Take “215 (SEDGLPEGIHL; listed as Homo sapiens) [compound 215]”: the Peptide exchange result was ““++” (>20% = ++)”.
For the substance “416 (SEEETRVVF; listed as Homo sapiens) [compound 416]”, the Peptide exchange result was ““+++” (>50 = +++)”.
The same measure, in the same setting: under “427 (HESSSHHDL; listed as Homo sapiens) [compound 427]” stands ““++” (>20% = ++)”; under “191 (EEDAALFKAW; listed as Homo sapiens) [compound 191]”, ““+++” (>50 = +++)”.
The same measure, in the same setting: in the case of “213 (KESIPRWYY; listed as Homo sapiens) [compound 213]” it was ““++” (>20% = ++)”; in that of “418 (FEDAQGHIW; listed as Homo sapiens) [compound 418]”, ““+++” (>50 = +++)”; in that of “399 (RELLHLVTL; listed as Homo sapiens) [compound 399]”, ““+++” (>50 = +++)”.
The same measure, in the same setting: under “426 (PEKTTHSF; listed as Homo sapiens) [compound 426]” stands ““+” (>10% = +)”.
On to “211 (EEKVFPSPLW; listed as Homo sapiens) [compound 211]”, for which the Peptide exchange result was ““+++” (>50 = +++)”.
Still for that read-out and setting: in the case of “413 (IEALSGKIEL; listed as Homo sapiens) [compound 413]” it was ““++” (>20% = ++)”; in that of “424 (TEFPLFSAA; listed as Homo sapiens) [compound 424]”, ““+” (>10% = +)”; in that of “422 (SETTFSLIF; listed as Homo sapiens) [compound 422]”, ““+++” (>50 = +++)”.
Same read-out and setting: in the case of “203 (IEHSTQAQDTL; listed as Homo sapiens) [compound 203]” it was ““++” (>20% = ++)”; in that of “205 (SEITRIEM; listed as Homo sapiens) [compound 205]”, ““++” (>20% = ++)”; in that of “209 (TEVSRTEL; listed as Homo sapiens) [compound 209]”, ““++” (>20% = ++)”.
On to “434 (KEAIREHQM; listed as Homo sapiens) [compound 434]”, for which the Peptide exchange result is reported as ““++” (>20% = ++)”.
Still for that read-out and setting: under “183 (YEKGIMQKV; listed as Homo sapiens) [compound 183]” stands ““++” (>20% = ++)”.
“396 (REASGLLSL; listed as Homo sapiens) [compound 396]”: the Peptide exchange result was ““+++” (>50 = +++)”.
